{
  "source": "paper PMC5966032",
  "about": "(Nature, 2018)",
  "proteins": {"B1": {"name": "Δ25 construct of chicken ASIC1a (domain or fragment, UniProt Q1XA76 25-463, looked up)", "chain": "SSTLHGISHIFSYERLSLKRVVWALCFMGSLALLALVCTNRIQYYFLYPHVTKLDEVAATRLTFPAVTFCNLNEFRFSRVTKNDLYHAGELLALLNNRYEIPDTQTADEKQLEILQDKANFRNFKPKPFNMLEFYDRAGHDIREMLLSCFFRGEQCSPEDFKVVFTRYGKCYTFNAGQDGKPRLITMKGGTGNGLEIMLDIQQDEYLPVWGETDETSFEAGIKVQIHSQDEPPLIDQLGFGVAPGFQTFVSCQEQRLIYLPPPWGDCKATTGDSEFYDTYSITACRIDCETRYLVENCNCRMVHMPGDAPYCTPEQYKECADPALDFLVEKDNEYCVCEMPCNVTRYGKELSMVKIPSKASAKYLAKKYNKSEQYIGENILVLDIFFEALNYETIEQKKAYEVAGLLGDIGGQMGLFIGASILTVLELFDYAYEVIKHR"}},
  "biological_target": "the molecule itself",
  "assay": "crystal structure",
  "data": [
    {"protein": "B1", "values": [
      {"measurement": "binding result", "result": "binds"}
    ]}
  ]
}
